Source: US20140066321A1 (PANGU BIOPHARMA, published 2014)

B1: human HRS variant with deletion of residues 1-53 and residues 507-509 (HRS Δ1-53-Δ507-509) (enzyme)
chain: FVLKTPKGTRDYSPRQMAVREKVFDVIIRCFKRHGAEVIDTPVFELKETLMGKYGEDSKLIYDLKDQGGELLSLRYDLTVPFARYLAMNKLTNIKRYHIAKVYRRDNPAMTRGRYREFYQCDFDIAGNFDPMIPDAECLKIMCEILSSLQIGDFLVKVNDRRILDGMFAICGVSDSKFRTICSSVDKLDKVSWEEVKNEMVGEKGLAPEVADRIGDYVQQHGGVSLVEQLLQDPKLSQNKQALEGLGDLKLLFEYLTLFGIDDKISFDLSLARGLDYYTGVIYEAVLLQTPAQAGEEPLGVGSVAAGGRYDGLVGMFDPKGRKVPCVGLSIGVERIFSIVEQRLEALEEKIRTTETQVLVASAQKKLLEERLKLVSELWDAGIKAELLYKKNPKLLNQLQYCEEAGIPLVAIIGEQELKDGVIKLRSVTSREEVDVRREDLVEEIKRRTGQPL
notes: the row under measurements tells of its self-association into a dimer in the crystal structure
B2: human HRS variant with deletion of residues 507-509 (HRS Δ507-509) (enzyme)
chain: MAERAALEELVKLQGERVRGLKQQKASAELIEEEVAKLLKLKAQLGPDESKQKFVLKTPKGTRDYSPRQMAVREKVFDVIIRCFKRHGAEVIDTPVFELKETLMGKYGEDSKLIYDLKDQGGELLSLRYDLTVPFARYLAMNKLTNIKRYHIAKVYRRDNPAMTRGRYREFYQCDFDIAGNFDPMIPDAECLKIMCEILSSLQIGDFLVKVNDRRILDGMFAICGVSDSKFRTICSSVDKLDKVSWEEVKNEMVGEKGLAPEVADRIGDYVQQHGGVSLVEQLLQDPKLSQNKQALEGLGDLKLLFEYLTLFGIDDKISFDLSLARGLDYYTGVIYEAVLLQTPAQAGEEPLGVGSVAAGGRYDGLVGMFDPKGRKVPCVGLSIGVERIFSIVEQRLEALEEKIRTTETQVLVASAQKKLLEERLKLVSELWDAGIKAELLYKKNPKLLNQLQYCEEAGIPLVAIIGEQELKDGVIKLRSVTSREEVDVRREDLVEEIKRRTGQPL
notes: the row under measurements tells of its self-association into a dimer (size exclusion chromatography)

Legend:
[1] = target: the molecule itself; experiment: X-ray crystal structure at 2.4 Å (self-association, homodimer)
Experimental: To set up a […], 1 μl of protein sample was mixed with 1 μl of crystallization solution with 0.2 M ammonium citrate. […] Before diffraction experiments, crystals were soaked in crystallization solution containing […] for cryoprotection. […] Specifically, crystals were soaked in crystallization solution containing 10-20% glycerol for 5-10 mins. The diffraction data were collected at the Shanghai Synchrotron Radiation Facility and were processed and scaled using HKL2000.
The phase was improved by density modifications with RESOLVE. The initial model was built in COOT. […] The models were refined in Refmac5 and PHENIX. […] All structure figures were prepared by PyMOL

[2] = target: the molecule itself; experiment: size exclusion chromatography (self-association, homodimer)
Experimental: The cDNA encoding native human cytoplasmic HRS and the splice variant HRSΔCD were cloned into a modified pET32 vector and fused to the N-terminal thioredoxin-His₆-tags. The fusion proteins were expressed in E. coli BL21(DE3) and first purified by Ni²⁺-NTA affinity chromatography Next, the thioredoxin-His₆-tag was removed by protease-3C digestion. The cleaved protein mixtures were further separated by a size-exclusion chromatography in a buffer containing 50 mM Tris (pH 7.5), 100 mM NaCl, 1 mM EDTA and 1 mM […] Native HRS and HRSΔCD mutants were created using the standard PCR-based mutagenesis method. The mutant proteins were purified using a protocol identical to that used for native HRS and HRSΔCD. Analytical gel filtration chromatography was carried out on an AKTA FPLC system (GE Healthcare). Proteins were loaded onto a Superose 12 10/300 GL column (GE Healthcare) equilibrated with a buffer containing 50 mM Tris (pH 7.5), 100 mM NaCl, […] EDTA and 1 mM […].

Protein	binding result [1]	binding result [2]
B1	binds	–
B2	–	binds
